Measured values as given in patent US20250161419A1, “SERPIN PEPTIDES AND METHODS OF USING THE SAME” (SERPIN PHARMA, LLC, priority 2022, published 2025).

How the values were obtained:
phospho-ERK1/2 = assay: Cell signaling analysis in PC12 cells, immunoblot of phospho-ERK1/2; type: cell-based, rat; details: 48 h after transfection
Method: Cell signaling analysis: Rat PC12 cells were purchased from ATCC (CRL-1721). PC12 cells were maintained in high glucose DMEM (Gibco, USA) containing 10% heat-inactivated FBS (Gibco, USA), 5% HyClone heat-inactivated horse serum (Cytiva, USA), penicillin (100 units/ml) and streptomycin ([…]) in 6-well plates that were pre-coated with 0.01 mg/ml type IV collagen (Sigma-Aldrich, St. Louis, MO, USA). Cells were transferred to serum-free medium (SFM) 4 h prior to adding effectors, and then treated with SP163M (2.4, 24 or 240 nM); EI-tPA (12 nM), NGF (0.36 nM), or vehicle (PBS) for 10 min. In some cases, cells were pre-incubated with the competitive antagonist of LRP1, GST-RAP (150 nM) for 15 min or electroporated using the Rat Neuron Nucleofector Amaxa Kit (Lonza Biosciences) and incubated with siRNA to silence LRP1 expression (siLRP1; M-094191-01-0010, Dharmacon) for 48 h. Control cells were transfected with non-targeting control (NTC) siRNA (NTC; D-001810-10-05, Dharmacon). […] Equal amounts of protein from cell lysates (20 μg), as determined by BCA Protein Assay (ThermoFisher Scientific, Waltham, MA, USA), were subjected to 10% SDS-PAGE and electro-transferred to nitrocellulose membranes. […]

[1] = test system: capsaicin induced acute pain-related behavior in mice; assay: Intraplantar capsaicin model of acute nociception; type: in vivo, mouse; details: male mice; SP163M 2 μg/g s.c. or EI-tPA 2 μg/g i.v. 1 h before capsaicin
Method: For the capsaicin studies, male (n=41) and female (n=37) mice were acclimated to the behavior testing facility for at least 1 h. Capsaicin was dissolved in 20% (2-hydroxypropyl)-β-cyclodextrin (Sigma-Aldrich, St. Louis, MO, USA) solution. […] Subsequently, 10 μl of 2 μg/μl capsaicin solution was injected into the plantar area of left hind paw. Immediately after capsaicin injection, mice were placed in a plexiglass box. Two observers, blinded to treatments, recorded the time spent licking and flinching the left hind paw over 10 min.

B1: EI-tPA: Recombinant human enzymatically inactive tissue-type plasminogen activator, known LRP1 agonist (protein)
chain: SYQVICRDEKTQMIYQQHQSWLRPVLRSNRVEYCWCNSGRAQCHSVPVKSCSEPRCFNGGTCQQALYFSDFVCQCPEGFAGKCCEIDTRATCYEDQGISYRGTWSTAESGAECTNWNSSALAQKPYSGRRPDAIRLGLGNHNYCRNPDRDSKPWCYVFKAGKYSSEFCSTPACSEGNSDCYFGNGSAYRGTHSLTESGASCLPWNSMILIGKVYTAQNPSAQALGLGKHNYCRNPDGDAKPWCHVLKNRRLTWEYCDVPSCSTCGLRQYSQPQFRIKGGLFADIASHPWQAAIFAKHRRSPGERFLCGGILISSCWILSAAHCFQERFPPHHLTVILGRTYRVVPGEEEQKFEVEKYIVHKEFDDDTYDNDIALLQLKSDSSRCAQESSVVRTVCLPPADLQLPDWTECELSGYGKHEALSPFYSERLKEAHVRLYPSSRCTSQHLLNRTVTDNMLCAGDTRSGGPQANLHDACQGDSGGPLVCLNDGRMTLVGIISWGLGCGQKDVPGVYTKVTNYLDWIRDNMRP
**Q.** B1 was tested. Which “activation of ERK1/2 in cells transfected with LRP1-specific siRNA” value (phospho-ERK1/2) did it give?
**A.** ERK1/2 was not activated

**Q.** And the “activation of ERK1/2 in cells transfected with NTC siRNA” value (phospho-ERK1/2)?
**A.** robustly activated ERK1/2

**Q.** What about the “capsaicin induced acute pain-related behavior (time spent licking over 10 min)” value [1] of the same molecule?
**A.** blocked the capsaicin induced acute pain-related behavior
